B1: Estrogen-related receptor gamma (Homo sapiens), P62508 (parent)
chain: MDSVELCLPESFSLHYEEELLCRMSNKDRHIDSSCSSFIKTEPSSPASLTDSVNHHSPGGSSDASGSYSSTMNGHQNGLDSPPLYPSAPILGGSGPVRKLYDDCSSTIVEDPQTKCEYMLNSMPKRLCLVCGDIASGYHYGVASCEACKAFFKRTIQGNIEYSCPATNECEITKRRRKSCQACRFMKCLKVGMLKEGVRLDRVRGGRQKYKRRIDAENSPYLNPQLVQPAKKPYNKIVSHLLVAEPEKIYAMPDPTVPDSDIKALTTLCDLADRELVVIIGWAKHIPGFSTLSLADQMSLLQSAWMEILILGVVYRSLSFEDELVYADDYIMDEDQSKLAGLLDLNNAILQLVKKYKSMKLEKEEFVTLKAIALANSDSMHIEDVEAVQKLQDVLHEALQDYEAGQHMEDPRRAGKMLMTLPLLRQTSTKAVQHFYNIKLEGKVPMHKLFLEMLEAKV
partner: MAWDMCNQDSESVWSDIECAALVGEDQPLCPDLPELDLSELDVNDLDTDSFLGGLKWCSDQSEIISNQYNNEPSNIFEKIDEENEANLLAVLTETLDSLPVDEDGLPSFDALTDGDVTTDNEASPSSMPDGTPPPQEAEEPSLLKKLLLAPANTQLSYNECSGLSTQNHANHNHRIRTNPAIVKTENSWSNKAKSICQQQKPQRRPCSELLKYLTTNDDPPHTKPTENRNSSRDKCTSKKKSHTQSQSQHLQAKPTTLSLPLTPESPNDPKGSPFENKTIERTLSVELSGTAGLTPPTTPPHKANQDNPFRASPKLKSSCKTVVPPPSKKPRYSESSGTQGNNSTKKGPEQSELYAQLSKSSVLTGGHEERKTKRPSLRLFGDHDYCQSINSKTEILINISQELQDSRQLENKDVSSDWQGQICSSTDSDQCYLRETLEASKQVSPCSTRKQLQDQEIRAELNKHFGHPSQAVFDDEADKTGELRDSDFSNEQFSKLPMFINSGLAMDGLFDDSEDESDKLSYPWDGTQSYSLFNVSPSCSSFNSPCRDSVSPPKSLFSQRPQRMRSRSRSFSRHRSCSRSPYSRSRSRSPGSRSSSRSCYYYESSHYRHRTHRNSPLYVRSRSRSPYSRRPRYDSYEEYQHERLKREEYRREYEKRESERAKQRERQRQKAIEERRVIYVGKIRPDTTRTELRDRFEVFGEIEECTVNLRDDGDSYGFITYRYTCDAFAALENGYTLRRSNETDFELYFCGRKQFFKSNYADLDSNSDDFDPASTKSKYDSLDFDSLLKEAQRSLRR
B2: Steroid hormone receptor ERR1 (Homo sapiens), P11474 (parent)
chain: MSSQVVGIEPLYIKAEPASPDSPKGSSETETEPPVALAPGPAPTRCLPGHKEEEDGEGAGPGEQGGGKLVLSSLPKRLCLVCGDVASGYHYGVASCEACKAFFKRTIQGSIEYSCPASNECEITKRRRKACQACRFTKCLRVGMLKEGVRLDRVRGGRQKYKRRPEVDPLPFPGPFPAGPLAVAGGPRKTAAPVNALVSHLLVVEPEKLYAMPDPAGPDGHLPAVATLCDLFDREIVVTISWAKSIPGFSSLSLSDQMSVLQSVWMEVLVLGVAQRSLPLQDELAFAEDLVLDEEGARAAGLGELGAALLQLVRRLQALRLEREEYVLLKALALANSDSVHIEDAEAVEQLREALHEALLEYEAGRAGPGGGAERRRAGRLLLTLPLLRQTAGKVLAHFYGVKLEGKVPMHKLFLEMLEAMMD
B3: Steroid hormone receptor ERR1 (Homo sapiens), P11474 (parent)
chain: B2 chain
partner: B1 partner

Variants of: B1
Conditions: with prgc1_human PPARGC1A

Variant | effect of a mutation on the interaction
K40R | with no effect

Variants of: B2
Conditions: with sumo3_human SUMO3, P55854
Chain of sumo3_human SUMO3, P55854 (P55854 whole entry): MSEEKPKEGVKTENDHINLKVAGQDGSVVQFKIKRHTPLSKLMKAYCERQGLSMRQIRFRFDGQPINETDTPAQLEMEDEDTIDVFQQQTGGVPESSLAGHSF

Variant | effect of a mutation on the interaction
K14R | with no effect

Variants of: B3
Conditions: with prgc1_human PPARGC1A

Variant | effect of a mutation on the interaction
K14R | with no effect
